The results in this text go back to the DeepSol protein solubility set.

The nature of the data set: soluble on expression in E. coli; label from the status in PepcDB or PDB records.
In the case of “MPPKVTSELLRQLRQAMRNSEYVTEPIQAYIIPSGDAHQSEYIAPCDCRRAFVSGFDGSAGTAIITEEHAAMWTDGRYFLQAAKQMDSNWTLMKMGLKDTPTQEDWLVSVLPEGSRVGVDPLIIPTDYWKKMAKVLRSAGHHLIPVKENLVDKIWTDRPERPCKPLLTLGLDYTGISWKDKVADLRLKMAERNVMWFVVTALDEIAWLFNLRGSDVEHNPVFFSYAIIGLETIMLFIDGDRIDAPSVKEHLLLDLGLEAEYRIQVHPYKSILSELKALCADLSPREKVWVSDKASYAVSETIPKDHRCCMPYTPICIAKAVKNSAESEGMRRAHIKDAVALCELFNWLEKEVPKGGVTEISAADKAEEFRRQQADFVDLSFPTISSTGPTGAIIHYAPVPETNRTLSLDEVYLIDSGAQYKDGTTDVTRTMHFETPTAYEKECFTYVLKGHIAVSAAVFPTGTKGHLLDSFARSALWDSGLDYLHGTGHGVGSFLNVHEGPCGISYKTFSDEPLEAGMIVTDEPGYYEDGAFGIRIENVVLVVPVKTKYNFNNRGSLTLEPLTLVPIQTKMIDVDSLTDKECDWLNNYHLTCRDVIGKELQKQGRQEALEWLIRETQPISKQH”, the “soluble on expression in E. coli” value is given as “soluble”.

Take “MRLEECRKRLEELEAAREELLKVLREMRIHSTKSIALIHAGKVEEAEQELKKAIELLEKVKAYREYPEIYFYLCNDAMQELVEAIAFKNAISGEFTFEIDLEVTPAAFLNGFADAVGELRRYALTKLIEGDFKSAERMLEVMEKIYERLMEFTTFPDKLVSGLRKKLDVARGGIERTKSDYIAAKVARLNESLGGN”: the “soluble on expression in E. coli” value is “not soluble”.

For “MSARKLFYLGPQGTFTHQAAVNAAQELARFEPQGFDLMPMDDVPQILDAAQHGDGWGIVAWENNVEGYVVPNLDALIDAKDLVGFARVGVNVEFDAYVAQGADPAEARIATAHPHGLAQCKRFIAEHRLSTQPATSNAAACRDLIPGEIAFGPAICGELYDITRIGTAIQDYQGAATDFLVLSPRAE”, the “soluble on expression in E. coli” value was “not soluble”.

For the sequence “MKNFLLLTLILLTACNNSEENTQSIIKNDINKTIIDEEYVNLEPINQSNISFTKHSWVQTCGTQQLLTEQNKESISLSVVAPRLDDDEKYCFDFNGVSNKGEKYITKVTLNVVAPSLEVYVDHASLPTLQQLMDIIKSEEENPTAQRYIAWGRIVPTDEQMKELNITSFALINNHTPADLVQEIVKQAQTKHRLNVKLSSNTAHSFDNLVPILKELNSFNNVTVTNIDLYDDGSAEYVNLYNWRDTLNKTDNLKIGKDYLEDVINGINEDTSNTGTSSVYNWQKLYPANYHFLRKDYLTLEPSLHELRDYIGDSLKQMQWDGFKKFNSKQQELFLSIVNFDKQKLQNEYNSSNLPNFVFTGTTVWAGNHEREYYAKQQINVINNAINESSPHYLGNSYDLFFKGHPGGGIINTLIMQNYPSMVDIPSKISFEVLMMTDMLPDAVAGIASSLYFTIPAEKIKFIVFTSTETITDRETALRSPLVQVMIKLGIVKEENVLFWADLPNCETGVCIAV”, the “soluble on expression in E. coli” value is recorded as “soluble”.

“SNADPKEGVQYEVLSTSLENDGMAPVTEVFALSCGHCRNMENFLPVISQEAGTDIGKMHITFNQSAHIASMFYYAAEMQVDGAPDHAFMEDLFAATQMGEGTTLTEQQEAYSKAFTSRGLVSPYDFNEEQRDTLIKKVDNAKMLSEKSGISSVPTFVVNGKYNVLIGGHDDPKQIADTIRYLLEK”: the “soluble on expression in E. coli” value is “soluble”.

For “MQFYAALFDFPCVPEISGPQPGNDEKSWQRDFLALTNARGTFDPWDTQTCQPCTLEGIVSRNHDAFSVADFSHNVFKYVRKNHVKTTVHWKRHWQRARMAHEFVYGEQS”, the “soluble on expression in E. coli” value is recorded as “not soluble”.

In the case of “YSFIGNPVFKKPFELDEMREYYLNFFERRGHGRIERYPVVARWRTDIYLTIASIADFQPFVTSGVAPPPANPLTISQPCIRLDDLDSVGRTGRHLTLFEMMAHHAFNYPGKEIYWKNETVAYCTELLNELGVKKEDIVYKEEPWAGGGNAGPCLEAIVGGLEVATLVFMNLEEHPEGDIEIKGARYRKMDNYIVDTGYGLERFVWASKGTPTVYDAIFPEVVDTIIDNSNVSFNREDERVRRI”, the “soluble on expression in E. coli” value was “not soluble”.

“MSTNPSQLVAADRIGFARLTKRAFDGENLYPLWQELMSKTDAGTATAGEQLDLALITQLFGHKQAGLSVQTETLKQQQLFRSPCASDNPRLRVLALAADIDMGGNTPIEFLLQDSGIELQTLYVIDGVPLPDPLPAHDVAIVIASDSDECMSALAAIEARVANWPAPLLNPPHLIRHLDRDKLYRLIGDIEGLEIPDTISVGRDTLVAAANGSATLPEVTGGVDFPIIVRPRGSHAGFGLARITDSVALLDYLRDRQESDYFIARYVDYASDDGQFRKYRVVVVDGKPYACHMAIANRWDIWYLNAGMAEDEVKRLEEAAFFHTFDFGFALRHKTALDGMIERIGLDYFTIDCAQTPRGDLLVFEIDNTAVVHDMDSPELYPYKPPQMHKIFDAFASMLERRVASRLTSVAAAALEHHHHHH”: the “soluble on expression in E. coli” value is “soluble”.

With “MSLKYNNCVIGSRSVFPPRGLQETNIGIVHISDINHYYTLNLSRKIENHLSKLTGAGTGDSVEDSMFLATMEAYERLANSIPVSQQVIASQEELGDLAVPLSDFPKMNQSETSSNGIEKKYLRWSESYNLTDQSRCYIPQVYINLYTHFNYNGEGLTHPISTGCAIHQDYTRAVINGIYEVIERDGIALFWLLKRPLKKLDKQEFIDDLEIFSSPFLGKTTLYDASTINGVYTFCLRAETHFSESIRNVVMFSSNTCPKEAISKLKKELISVIYSLANGIEKQSNLLKQDPMSFYHVDEGALYMAHPSKAYAFEFLNNSSKGSIPTNEIQFSSYGEELRYLIKKLEGLGHKVYVTNLSNRECEENQLKAVKVTIPSLQPISFVHSAREGHHHHHH”, the “soluble on expression in E. coli” value is given as “not soluble”.

In the case of “MGHHHHHHSHMPADRSIWQESCPVSFSALKKWIFLPNSTKIKEKRSSFPVRGPLTFDGWYPRDHKPSAPPTNEEERRAAAVKYGLRPEDYQSMDKDDVIKFAGDYPDLGVITYDHKDPYEAWTDRQNRRNWGELVPIDMMRYRGDRLTFTGLEAEDYTTWNSIVMCLRVLVPMALLAWYFTNEHPNALRWKNPAMPKQYSYDFYRAYPFDDPRKYPIVNYSFDLE”, the “soluble on expression in E. coli” value is listed as “not soluble”.

Take “GEMDERLLQKYRAQVFEWGGCFDKMFEALKSLIYLSEFENSEFDDEERHLLTLCIKHKISDYRTMTSQVLQEQTKQLNNDELVKICSEYVFSLRKDIKAFLQSFEDCVDRLVEKSFFSKFFKLKVKSDISRYKLEFGLCSLEDSKKIHQDAFTLLCEHPDKIEQLPLGFIQNLAYILSEKYGEKKQVFNMLNSLGKILELQIKEQENMDRKAQITVYLQGIKDYIEK”: the “soluble on expression in E. coli” value is recorded as “soluble”.

Consider “MQQLINSLFMEAFANPWLAEQEDQARLDLAQLVAEGDRLAFSTDSYVIDPLFFPGGNIGKLAICGTANDVAVSGAIPRYLSCGFILEEGLPMETLKAVVTSMAETARAAGIAIVTGDTKVVQRGAVDKLFINTAGMGAIPANIHWGAQTLTAGDVLLVSGTLGDHGATILNLREQLGLDGELVSDCAVLTPLIQTLRDIPGVKALRDATRGGVNAVVHEFAAACGCGIELSEAALPVKPAVRGVCELLGLDALNFANEGKLVIAVERNAAEQVLAALHSHPLGKDAALIGEVVERKGVRLAGLYGVKRTLDLPHAEPLPRIC”, for which the “soluble on expression in E. coli” value is “not soluble”.

As to “MGSDKIHHHHHHMFLKENSVDDFDKQLDDLFKTTKTSRISELSEALGVSPTTIRTWRGRNKIPASAFRKAELSIQNDSDVKTDTRISLSFYEISASAGGGALVEVEEQANLISFEPEWLNKEIGVNANDVFLMLVDGDSMYPTLKNGAMIMVNKHFNGLSDGIYVMRHEQNLLVKRLQMLPNGIIKVKSDNNLYEPWEINKENLDGTDIEIIGRVVWSGQRM”, the “soluble on expression in E. coli” value is listed as “not soluble”.

On to “MSETLDQWRAGLTLGFAPGHAGRTVLRERAHYGPMLVQRALYPEGPQVCHVAILHPPSGIAGGDALEIRVDVAGGARAALTTPGATRWYKSNGRQASQDVHLRVAAGGRLDWLPLESIFFEEADALARNRIQLESGAAAIGWDLIQLGRVNQSGHWSQGRLHTATELYVDGRLLWVDQGLVGAQDDVRRQVSGLAGFPVHAALWSFGPRLDAEQNEELAGLMPWSDTLRGAATTMPYDATQSLCLVRCLGVHMEDVRAVMTDAWAYLRPRVLDTPAVVPRLWATKLAAALEHHHHHH”, for which the “soluble on expression in E. coli” value was “not soluble”.

“RRIGKVNLRHNRGFLTPELKRNFLRYTLFYVVASIGSKLSSRLDLFMVSSLDKGGLDSGGIFSIAFYMVAVVEIPSRSLLSVSSPLMADAMKRNDLVKADELFKRVSLHQ”: the “soluble on expression in E. coli” value is “not soluble”.

In the case of “MGSDKIHHHHHHMDVLRCENLKKRFGRRYVVNGVNLEFHRGEIVGLLGPNGAGKTTIFNMILGVVVPTSGKIIFRDVDITKFPVYRRARLGITYLQQETSIFGGLTVRENIDLVLRFHEKDKEKRERKIEELLHEFHLKHLENQPASFLSGGEKRKLELARMMCLNPAFILLDEPFSGIDPKTVKEIQKMTLELKQKNFGIVITDHNVDELVEIADRIYVIYKGEILAEGSPERILEDETVREVYLGT”, the “soluble on expression in E. coli” value is on record as “not soluble”.

In the case of “MNKAYYIGLMSGTSMDGVDAVLVDFAGEQPQLIGTHTETIPTHLLKGLQRLCLPGTDEINRLGRLDRSVGKLFALAVNNLLAKTKIAKDEIIAIGSHGQTVRHMPNLEVGFTLQIGDPNTIATETGIDVIADFRRKDIALGGQGAPLVPAFHQQTFAQVGKKRVILNIGGIANITYLPGNSEEVLGFDTGPGNTLIDAWVQQVKNESYDKNGAWAASGKTDPQLLAQLLSHPYFSLAYPKSTGRELFNQAWLEQQLSAFNQLNEEDIQSTLLDLTCHSIAQDILKLAQEGELFVCGGGAFNAELMQRLAALLPGYRIDTTSALGVDPKWAEGIAFAWLAMRYQLGLPANLPAVTGASREAILGGRFSAK”, the “soluble on expression in E. coli” value is “soluble”.

In the case of “MAHHHHHHMYEKTHVTTYPVMGCQISVGTTASRRSKGLNATRSGVDGALTSGTVDGRDPKSTGADNSVSLAYAVPAVKPVTYNDYRGFQVTMVNGTLAKINNICRWLDTALDKREKNGGWCMDVLAESVSSGKMETSFYCESIVQASHHVTHYCGQERANGVEYFAEVHSQQVFEKSAVSRTFDCPSAKFVYNSRFEEIPRQSDITTTQLNKETSDSGIPNGREAMIRYSPTSSEDGGRLNE”, the “soluble on expression in E. coli” value is recorded as “not soluble”.

On to “MDFPRIIMARNPIYFESIQIGEKIEGLPRTVTETDIWTFAYLTADFFPLHTDVEFAKKTIFGKPIAQGMLVLSIALGMVDQVILSNYDVSSVIAFFGIKDVRFLRPVFIGDTIAASAEVVEKQDFDEKSGVVTYKLEVKNQRGELVLTALYSALIRKTPSK”, for which the “soluble on expression in E. coli” value is given as “soluble”.

As to “MSVIQNIIGRIAVLRGGKYSVEVDVATDEGFGRFTSPIDDNPMLHIAEARRAVSEVDEIIGPELIGFDASEQELIDSYLWEIDGTEDFSHIGANTALAVSTAIAKAAANSRDMPLYSYIGGTFATELPVPVLSFAQDDMFDYYLVVKDLLEVTDIIDATNKIREIVKEINLENLSKASEDVGVELGLEVALGIGMKKEMDIEKVLNLVEDYNVAYIKPIGPPELFLELIAGTHGVFIDGEYLFRTNSVLDRRYYNALSIKPINLGTLTDLYNFVNDVKAEKITPILAEAKYEPADETFPHIALGLRCPAMLISWSSIEKINELNRIAEELGERGRIITFEE”, the “soluble on expression in E. coli” value was “soluble”.
